Among the data in the Human Domainome abundance scans (Beltran et al. 2025) are abundance fitness values, retold here.

± gives the uncertainty stated by the source.

The labels stand for the following.
B1: PDZ and LIM domain protein 2, residues 284 to 339; numbered along this chain, Q96JY6 (parent)
chain: HTCEKCSTSIANQAVRIQEGRYRHPGCYTCADCGLNLKMRGHFWVGDELYCEKHAR

In this series the parent is B1. Description: abundance fitness (aPCA) (normalised: wild type 0, dead -1); higher = more abundant; growth selection in yeast, the domain comes from the species named. The following applies: Homo sapiens.
With HTCEKCSTSIANQAVRIEEGRYRHPGCYTCADCGLNLKMRGHFWVGDELYCEKHAR, the abundance fitness stood at 0.002 ± 0.12.

Consider HTCEKCSTSIANQAVRITEGRYRHPGCYTCADCGLNLKMRGHFWVGDELYCEKHAR, for which the abundance fitness was -0.051 ± 0.075.

With HTIEKCSTSIANQAVRIQEGRYRHPGCYTCADCGLNLKMRGHFWVGDELYCEKHAR, the abundance fitness was -0.471 ± 0.25.

On to HTLEKCSTSIANQAVRIQEGRYRHPGCYTCADCGLNLKMRGHFWVGDELYCEKHAR, for which the abundance fitness was -0.978 ± 0.16.

Turning to HTCIKCSTSIANQAVRIQEGRYRHPGCYTCADCGLNLKMRGHFWVGDELYCEKHAR, the abundance fitness was -0.331 ± 0.26.

Take HTCEKCSTSIANQAVGIQEGRYRHPGCYTCADCGLNLKMRGHFWVGDELYCEKHAR: the abundance fitness is -0.015 ± 0.06.

As for HTCEKCSTSIANQAVRIQEGRYRHPGCYTCADCGLNSKMRGHFWVGDELYCEKHAR, the abundance fitness is -0.614 ± 0.12.

With HTCEKCSTSIANQAVRIQEGRYRHPGCYTCADCGLNEKMRGHFWVGDELYCEKHAR, the abundance fitness was -0.407 ± 0.068.

For HTCEKCSTSIANQAVRIQEGRYRHPGCYTCADCGLNLKMRGAFWVGDELYCEKHAR, the abundance fitness is -0.147 ± 0.076.

As to HTCEKCSTSIANQAVRIQEGRYRHPGCYTCADCGLNLKMRGPFWVGDELYCEKHAR, the abundance fitness is -0.053 ± 0.15.

Consider HTCEKCSTSIANQAVRIQEGRYRHPGCYTCADCGLNLKMRGHIWVGDELYCEKHAR, for which the abundance fitness was -0.084 ± 0.17.

HTCEKCSTSIANQAVRIQEGRYRHPGCYTCADCGLNLKMRGHCWVGDELYCEKHAR: the abundance fitness is 0.101 ± 0.13.

For the variant HTCEKCSTSIANQAVRIQEGRYRHPGCYTCADCGLNLKMRGHNWVGDELYCEKHAR, the abundance fitness came out at 0.071 ± 0.19.

As for HTCEKCSTSIANQAVRIQEGRYRHPGCYTCADCGLCLKMRGHFWVGDELYCEKHAR, the abundance fitness is -0.116 ± 0.083.

Take HTCEKCSTSIANQAVRIQEGRYRHPGCYTCADCGLVLKMRGHFWVGDELYCEKHAR: the abundance fitness is -0.113 ± 0.059.

HTCEKCSTSIANQAVRIQEGRYRHPGCYTCADCGLNLKMEGHFWVGDELYCEKHAR: the abundance fitness came out at 0.066 ± 0.071.

HTCEKCSTSIANQAVRIQEGRYRHPGCYTCADCGLNLKMKGHFWVGDELYCEKHAR: the abundance fitness turned out to be 0.188 ± 0.079.

In the case of HTCEKCSTSIANQAVRIQEGRYRHPGVYTCADCGLNLKMRGHFWVGDELYCEKHAR, the abundance fitness was -0.661 ± 0.12.

In the case of HTCEKCTTSIANQAVRIQEGRYRHPGCYTCADCGLNLKMRGHFWVGDELYCEKHAR, the abundance fitness was found to be 0.008 ± 0.076.

Regarding HTCEKCITSIANQAVRIQEGRYRHPGCYTCADCGLNLKMRGHFWVGDELYCEKHAR, the abundance fitness was -0.047 ± 0.14.

For HTCEKCWTSIANQAVRIQEGRYRHPGCYTCADCGLNLKMRGHFWVGDELYCEKHAR, the abundance fitness was -0.641 ± 0.1.

In the case of HTCEKCRTSIANQAVRIQEGRYRHPGCYTCADCGLNLKMRGHFWVGDELYCEKHAR, the abundance fitness is -0.216 ± 0.075.

Consider HTCEKCGTSIANQAVRIQEGRYRHPGCYTCADCGLNLKMRGHFWVGDELYCEKHAR, for which the abundance fitness came out at 0.018 ± 0.056.

As for HTCEKCSTSIANQAVRIQEGRYRHPGCYTCADCGLNLKMRGHFWVGDEVYCEKHAR, the abundance fitness is -0.075 ± 0.086.

Take HTCEKCSTSIANQAVRIQEGRYRHPGCYTCADCGLNLKMRGHFWVGDEQYCEKHAR: the abundance fitness was -0.174 ± 0.12.

In the case of HTCEKCSTSIANQAVRIQEGRYRHPGCYTCNDCGLNLKMRGHFWVGDELYCEKHAR, the abundance fitness amounted to 0.086 ± 0.12.

As for HTCEKCSTSIANQAVRIQEGRYRHPGCYTCGDCGLNLKMRGHFWVGDELYCEKHAR, the abundance fitness was 0.019 ± 0.08.

Regarding HTCEKCSTSIANQAVRIQEGRYRHPGCYTCADLGLNLKMRGHFWVGDELYCEKHAR, the abundance fitness was -0.549 ± 0.084.

HTCEKCSTSIAYQAVRIQEGRYRHPGCYTCADCGLNLKMRGHFWVGDELYCEKHAR: the abundance fitness was -0.622 ± 0.092.

HTCEKCSTSIARQAVRIQEGRYRHPGCYTCADCGLNLKMRGHFWVGDELYCEKHAR: the abundance fitness was -0.73 ± 0.097.

HTCEKCSTSIAQQAVRIQEGRYRHPGCYTCADCGLNLKMRGHFWVGDELYCEKHAR: the abundance fitness is -0.044 ± 0.11.

With HTCEKCSTSIANQAVRIQEGRYRHPGCYTMADCGLNLKMRGHFWVGDELYCEKHAR, the abundance fitness was -0.712 ± 0.13.

As to HTCEKCSTSIANQAVRIQEGRYRHPGCYTCADCGLNLSMRGHFWVGDELYCEKHAR, the abundance fitness was 0.056 ± 0.076.

Take HTCEKCSTSIANQAVRIQEGRYRHPGCYTCADCGLNLVMRGHFWVGDELYCEKHAR: the abundance fitness was -0.447 ± 0.098.

Regarding HTCEKCSTSIANQAVRIQEGRYRHPGCYTCADCGLNLYMRGHFWVGDELYCEKHAR, the abundance fitness is -0.037 ± 0.14.

Consider HTCEKCSTSIANQAVRIQEGRYRHPGCYICADCGLNLKMRGHFWVGDELYCEKHAR, for which the abundance fitness is -0.004 ± 0.1.

On to HTCEKCSTSIANQAVRIQEGRYRHPGCYLCADCGLNLKMRGHFWVGDELYCEKHAR, for which the abundance fitness was -0.117 ± 0.081.

For the variant HTCEKCSTSIANQAVRIQEGRYRHPGCYTCADCGLNLKMRGHFVVGDELYCEKHAR, the abundance fitness is 0.044 ± 0.09.

HTCEKCSTSIANQAVRIQEGRYRHPGCYTCADCGLNLKMRGHFWVGDELYCEKHER: the abundance fitness is -0.309 ± 0.16.

For the variant HTCEKCSTSIANQAVRIQEGRYRHPGCYTCADCGLNLKMRGHFWVGDELYCEKHYR, the abundance fitness stood at 0.081 ± 0.073.

With HTCEKCSTRIANQAVRIQEGRYRHPGCYTCADCGLNLKMRGHFWVGDELYCEKHAR, the abundance fitness is -0.34 ± 0.083.

On to HTCEKCSTDIANQAVRIQEGRYRHPGCYTCADCGLNLKMRGHFWVGDELYCEKHAR, for which the abundance fitness came out at 0.277 ± 0.13.

On to HTCEKCSTYIANQAVRIQEGRYRHPGCYTCADCGLNLKMRGHFWVGDELYCEKHAR, for which the abundance fitness is -1.02 ± 0.31.

As for HTCEKCSTHIANQAVRIQEGRYRHPGCYTCADCGLNLKMRGHFWVGDELYCEKHAR, the abundance fitness was -0.539 ± 0.18.

With HTCEKCSTSIANQAVRIQEGRYRHPGCYTCADCGLNLKMRGHFWVADELYCEKHAR, the abundance fitness is -0.206 ± 0.092.

With HTCEKCSTSIANQAVRIQEGRYRHPGCYTCADCGLNLKMRGHFWVEDELYCEKHAR, the abundance fitness amounted to 0.047 ± 0.064.

With HTCEKCSTSIANQAVRIQEGRYRHPGCYTCADCGLNLKMRGHFWVIDELYCEKHAR, the abundance fitness is -0.223 ± 0.18.
